The results in this text go back to patent US20240417458A1 (DISC MEDICINE, published 2024).

Test [1] has as its target T1, soluble human RGMc (human, UniProt Q6ZVN8 36-400).
T1 construct: also called huRGMc; soluble hRGMc
T1 sequence: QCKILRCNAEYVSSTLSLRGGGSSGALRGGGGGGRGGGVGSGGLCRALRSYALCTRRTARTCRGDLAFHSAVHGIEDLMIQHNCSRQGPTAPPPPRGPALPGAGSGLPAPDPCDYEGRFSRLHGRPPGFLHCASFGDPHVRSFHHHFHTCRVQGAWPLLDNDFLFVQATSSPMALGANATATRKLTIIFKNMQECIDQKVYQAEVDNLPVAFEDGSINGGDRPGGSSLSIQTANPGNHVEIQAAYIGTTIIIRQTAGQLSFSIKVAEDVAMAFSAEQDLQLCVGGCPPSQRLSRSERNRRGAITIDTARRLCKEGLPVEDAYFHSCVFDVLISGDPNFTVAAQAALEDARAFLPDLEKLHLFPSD
Nature of the test: SPR; method not named in Example 2.

Test [2] has as its target T2, soluble human RGMa (human, UniProt Q96B86 48-422, limits assumed).
T2 construct: Soluble antigen in BIAcore; also called huRGMa; repulsive guidance molecule A
T2 sequence (looked up): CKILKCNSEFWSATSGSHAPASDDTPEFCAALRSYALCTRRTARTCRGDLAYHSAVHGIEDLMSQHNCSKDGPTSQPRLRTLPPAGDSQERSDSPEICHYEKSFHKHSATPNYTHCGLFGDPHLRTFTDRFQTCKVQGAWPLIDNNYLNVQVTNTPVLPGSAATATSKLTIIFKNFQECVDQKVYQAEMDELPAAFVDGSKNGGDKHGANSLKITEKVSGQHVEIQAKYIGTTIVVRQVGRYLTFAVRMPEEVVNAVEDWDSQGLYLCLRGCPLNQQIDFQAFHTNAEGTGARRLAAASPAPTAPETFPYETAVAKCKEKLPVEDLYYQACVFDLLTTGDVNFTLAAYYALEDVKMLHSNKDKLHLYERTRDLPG
In words: SPR; method not named in Example 2.

For test [3], the target named is T2, soluble human RGMa. In words: SPR (BIAcore). (In SPR one partner is held on a chip, and binding of the other changes the refractive index at the surface.)
Procedure: (§1) Binding affinities of the anti-HJV antibodies to soluble human RGMa, Rat RGMa and human RGMc were measured by BIAcore analysis.
The target in test [4] is T3, soluble rat RGMa (rat, UniProt D4A188 48-421).
T3 construct: Soluble antigen in BIAcore
T3 sequence: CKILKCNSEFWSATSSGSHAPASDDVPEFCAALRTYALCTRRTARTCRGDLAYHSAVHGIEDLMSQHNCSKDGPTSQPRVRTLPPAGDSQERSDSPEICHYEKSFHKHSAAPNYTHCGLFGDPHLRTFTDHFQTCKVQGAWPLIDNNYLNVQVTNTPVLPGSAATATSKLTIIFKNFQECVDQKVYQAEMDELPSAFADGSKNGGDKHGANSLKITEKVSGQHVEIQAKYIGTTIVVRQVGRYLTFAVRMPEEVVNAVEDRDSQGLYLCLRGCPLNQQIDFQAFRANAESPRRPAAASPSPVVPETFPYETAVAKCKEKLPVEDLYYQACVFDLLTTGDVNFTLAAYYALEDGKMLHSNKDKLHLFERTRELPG
In words: SPR (BIAcore), RGM antigen in solution.

In test [5] the target is T2, soluble human RGMa. Nature of the test: SPR (BIAcore), RGM antigen in solution.
Test [6] concerns the target T1, soluble human RGMc. Nature of the test: SPR (BIAcore).
Procedure: as §1
The target in test [7] is T1, soluble human RGMc. In words: SPR (BIAcore), soluble hRGMc; summary table.
Test [8] concerns the target T3, soluble rat RGMa. Nature of the test: SPR (BIAcore).
Procedure: as §1

B1: hHA-008 (antibody, human IgG1, kappa, L234A L235A)
heavy: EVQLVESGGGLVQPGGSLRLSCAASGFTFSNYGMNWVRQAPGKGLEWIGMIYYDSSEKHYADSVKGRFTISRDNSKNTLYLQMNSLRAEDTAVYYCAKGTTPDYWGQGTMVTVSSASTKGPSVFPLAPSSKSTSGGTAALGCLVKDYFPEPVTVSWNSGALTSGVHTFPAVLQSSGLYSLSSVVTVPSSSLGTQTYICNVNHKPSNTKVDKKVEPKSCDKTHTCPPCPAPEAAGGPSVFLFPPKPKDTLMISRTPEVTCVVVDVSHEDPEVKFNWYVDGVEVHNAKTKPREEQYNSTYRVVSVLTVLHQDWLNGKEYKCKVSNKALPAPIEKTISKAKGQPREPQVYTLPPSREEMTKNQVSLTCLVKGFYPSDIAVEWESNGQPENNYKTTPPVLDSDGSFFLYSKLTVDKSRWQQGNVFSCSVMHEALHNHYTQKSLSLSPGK
light: DVVLTQSPLSLPVTLGQPASISCRSSQSLEESDGYTFLHWFQQRPGQSPRLLIYEVSTRFSGVPDRFSGSGSGTDFTLKISRVEAEDVGVYYCFQATHDPLTFGQGTKLEIKRTVAAPSVFIFPPSDEQLKSGTASVVCLLNNFYPREAKVQWKVDNALQSGNSQESVTEQDSKDSTYSLSSTLTLSKADYEKHKVYACEVTHQGLSSPVTKSFNRGEC
notes: hIgG1 L234A, L235A, kappa; also called hHA-008 (hIgG1mut(LALA)/k)
The term Kd denotes the free concentration of one partner at which half of the binding sites on the other are occupied at equilibrium, for simple one-to-one binding. Low values mean a tighter complex, high ones a looser complex. Usually koff stands for the first-order rate constant of dissociation. Read a high koff as a short-lived complex. Usually kon stands for the second-order rate constant of association. Consider B1, for which the Kd was found to be 0.11 nM with soluble human RGMc [1]; 0.078 nM with soluble human RGMa [2]; 0.031 nM with soluble human RGMa [3]; 0.12 nM with soluble rat RGMa [4]; 0.074 nM with soluble human RGMa [5]; 0.105 nM with soluble human RGMc [6]. Also, the Kd with soluble human RGMc [7] is 0.105 nM; in the test with soluble rat RGMa [8] it was less than 0.0015 nM. Besides, the off-rate constant (koff) in the test with soluble human RGMc [1] was determined as 0.00032 s⁻¹; with soluble human RGMa [2], 4.2e-05 s⁻¹; in the test with soluble human RGMa [3], 2.7e-05 s⁻¹; in the test with soluble rat RGMa [4], 3.6e-05 s⁻¹; with soluble human RGMa [5] it was 3.6e-05 s⁻¹; with soluble human RGMc [6] it was 0.00039 s⁻¹. In addition, the koff with soluble human RGMc [7] was 0.00039 s⁻¹; with soluble rat RGMa [8], less than 1e-06 s⁻¹. The on-rate constant (kon) in the test with soluble human RGMc [1] is 3e+06 M⁻¹ s⁻¹; with soluble human RGMa [2], 540000 M⁻¹ s⁻¹; in the test with soluble human RGMa [3], 870000 M⁻¹ s⁻¹; with soluble rat RGMa [4], 310000 M⁻¹ s⁻¹; in the test with soluble human RGMa [5], 490000 M⁻¹ s⁻¹; with soluble human RGMc [6], 3.95e+06 M⁻¹ s⁻¹. In addition, the values for the association rate constant (kon) in the test with soluble human RGMc [7] and in the test with soluble rat RGMa [8] were 3.95e+06 M⁻¹ s⁻¹ and 660000 M⁻¹ s⁻¹, respectively.
